Substitutions are numbered along the chain they refer to. Where “and” joins values, the source holds several entries; their conditions need not be identical. Identical values can stand only once.

Sequences and labels used below:
B1: M1116 (bispecific antibody, V domains shown)
VH: EVQLLESGGGSVQPGGSLRLSCTVSGFSLSNYAMSWVRQAPGKGLEWIGIVSSGGTTYYASWAKGRFTISKDTSKNTVYLQMNSLRAEDTASYYCAKDLYYGPTTYSAANLWGQGTSVTVSS
VL: SYELTQPPSVSVSPGQTASITCTADTLSRSYASWYQQKPGQSPVLVIYRDTSRPSGIPERFSGSNSGNTATLTISGTQAMDEADYYCATRPSSGSNFQLFGGGTKLTVL
notes: Variant of humanized M0763; tested in SPR as anti-CD3 Fab x anti-MAGE-A4 scFv bispecific
B2: M1113 (bispecific antibody, V domains shown)
VH: B1 VH with Y106A, A109F
VL: B1 VL
notes: as for B1
B3: M1087 (bispecific antibody, V domains shown)
VH: B1 VH with A109F
VL: B1 VL with P91D
notes: as for B1
B4: M1112 (bispecific antibody, V domains shown)
VH: B1 VH with T105A, A109F
VL: B1 VL
notes: as for B1
B5: M1119 (bispecific antibody, V domains shown)
VH: B1 VH with A109F
VL: B1 VL with A88S
notes: as for B1
B6: M1109 (bispecific antibody, V domains shown)
VH: B1 VH with G102A, A109F
VL: B1 VL
notes: as for B1
B7: M1107 (bispecific antibody, V domains shown)
VH: B1 VH with Y100A, A109F
VL: B1 VL
notes: as for B1
B8: M1090 (bispecific antibody, V domains shown)
VH: B1 VH with A109F
VL: B1 VL with R90K
notes: as for B1
B9: M1097 (bispecific antibody, V domains shown)
VH: B1 VH with D98N, L99V, A109F
VL: B1 VL
notes: as for B1
B10: M1108 (bispecific antibody, V domains shown)
VH: B1 VH with Y101A, A109F
VL: B1 VL
notes: as for B1
B11: M1096 (bispecific antibody, V domains shown)
VH: B1 VH with Y106Q, A109F
VL: B1 VL
notes: as for B1
B12: M1040 (bispecific antibody, V domains shown)
VH: B1 VH with V2S, L4V, W47Y, S107H, A108Q, A109L
VL: B1 VL with R90S, P91D, S92G
notes: as for B1
B13: M1110 (bispecific antibody, V domains shown)
VH: B1 VH with P103A, A109F
VL: B1 VL
notes: as for B1
B14: M1051 (bispecific antibody, V domains shown)
VH: B1 VH with V2S, L4V, W47Y, T56R, T57K, Y58R, A109F
VL: B1 VL with R90S, P91D, S92G
notes: as for B1
B15: M1105 (bispecific antibody, V domains shown)
VH: B1 VH with D98A, A109F
VL: B1 VL
notes: as for B1
B16: M1122 (bispecific antibody, V domains shown)
VH: B1 VH with A109F
VL: B1 VL with P91A
notes: as for B1
B17: M1086 (bispecific antibody, V domains shown)
VH: B1 VH with A109F
VL: B1 VL with R90S
notes: as for B1
B18: M1089 (bispecific antibody, V domains shown)
VH: B1 VH with A109F
VL: B1 VL with S92A
notes: as for B1
B19: M1114 (bispecific antibody, V domains shown)
VH: B1 VH with S107A, A109F
VL: B1 VL
notes: as for B1
B20: M1038 (bispecific antibody, V domains shown)
VH: B1 VH with V2S, L4V, W47Y, D98N, L99V, A109F
VL: B1 VL with R90S, P91D, S92G
notes: as for B1
B21: M1041 (bispecific antibody, V domains shown)
VH: B1 VH with V2S, L4V, W47Y, A109F
VL: B1 VL
notes: as for B1
B22: M1117 (bispecific antibody, V domains shown)
VH: B1 VH with A109F, N110A
VL: B1 VL
notes: as for B1
B23: M1111 (bispecific antibody, V domains shown)
VH: B1 VH with T104A, A109F
VL: B1 VL
notes: as for B1
B24: M1121 (bispecific antibody, V domains shown)
VH: B1 VH with A109F
VL: B1 VL with R90A
notes: as for B1
B25: M1115 (bispecific antibody, V domains shown)
VH: B1 VH with A108S, A109F
VL: B1 VL
notes: as for B1
B26: M1037 (bispecific antibody, V domains shown)
VH: B1 VH with V2S, L4V, W47Y, S107H, A108D, A109L
VL: B1 VL with R90S, P91D, S92G
notes: as for B1
B27: M1099 (bispecific antibody, V domains shown)
VH: B1 VH with D98N, L99V, Y106Q, A109F
VL: B1 VL with R90S, P91D, S92G
notes: as for B1
B28: M1036 (bispecific antibody, V domains shown)
VH: B1 VH with V2S, L4V, W47Y, Y106Q, A109F
VL: B1 VL with R90S, P91D, S92G
notes: as for B1
B29: M1100 (bispecific antibody, V domains shown)
VH: B1 VH with S107H, A108D, A109L
VL: B1 VL
notes: as for B1
B30: M1098 (bispecific antibody, V domains shown)
VH: B1 VH with D98N, L99V, Y106Q, A109F
VL: B1 VL
notes: as for B1
B31: M1101 (bispecific antibody, V domains shown)
VH: B1 VH with T56R, T57K, Y58R, A109F
VL: B1 VL
notes: as for B1
B32: M1088 (bispecific antibody, V domains shown)
VH: B1 VH with A109F
VL: B1 VL with S92G
notes: as for B1
B33: M1120 (bispecific antibody, V domains shown)
VH: B1 VH with A109F
VL: B1 VL with T89A
notes: as for B1

The experiment deals with T1, HLA-A2/MAGE-A4 complex, recombinant (HLA-A*02:01 extracellular domain, human b2m, MAGE-A4 peptide 230-239 …) (human, UniProt P04439 25-299 at identity 0.94); P61769 21-119).
T1 construct: also called MAGE-A4 pMHC; MAGE-A4/HLA-A2 complex
Put plainly: SPR, monovalent.
As for B1, the dissociation constant (Kd) came out at 3.88 nM.
Regarding B2, the Kd was 15.3 nM.
In the case of B3 it was 0.82 nM; in that of B4, 35.9 nM.
B5: the Kd was determined as 0.91 nM.
For B6, the Kd worked out at 11.7 nM.
Regarding B7, the Kd came to 1.45 nM.
Turning to B8, the Kd turned out to be 1.8 nM.
In the case of B9 it was 0.99 nM; in that of B10, 19 nM.
B11: the Kd was found to be 3.23 nM.
Turning to B12, the equilibrium dissociation constant (Kd) was 0.45 nM.
With B13 the figure was 9.65 nM.
Turning to B14, the Kd is 5 nM.
In the case of B15 it was 4.12 nM; in that of B16, 0.75 nM.
B17: the Kd worked out at 7.02 nM.
Regarding B18, the Kd was 1.34 nM and 0.79 nM.
With B19 the figure was 1.18 nM; with B20, 3.6 nM.
With B21, the Kd turned out to be 0.24 nM.
In the case of B22, the Kd came out at 4.2 nM.
In the case of B23 it was 0.65 nM; in that of B24, 6.53 nM.
With B25 the figure was 0.48 nM; with B26, 0.4 nM; with B27, 2.13 nM.
B28: the equilibrium dissociation constant (Kd) was determined as 4.9 nM.
With B29 the figure was 0.66 nM; with B30, 1.73 nM; with B31, 1.69 nM.
In the case of B32 it was 3.9 nM; in that of B33, 1.21 nM.
